Measurements: FireProtDB (doi:10.1016/j.bpj.2013.08.038)
“And” between values parts separate entries of the source, which are not always exact repeats. Equal values may be shown once.

Conditions: Pseudomonas aeruginosa (strain ATCC 15692 / DSM 22644 / CIP 104116 / JCM 14847 / LMG 12228 / 1C / PRS 101 / PAO1), pH 7, CD, transition: 2, reversible: yes, whole UniProt chain shown; for denaturant m value / unfolding free energy: 25 °C, GdnHCl; for Tm / unfolding enthalpy (calorimetric): Thermal

B1: Azurin wild type, P00282 (protein)
chain: MLRKLAAVSLLSLLSAPLLAAECSVDIQGNDQMQFNTNAITVDKSCKQFTVNLSHPGNLPKNVMGHNWVLSTAADMQGVVTDGMASGLDKDYLKPDDSRVIAHTKLIGSGEKDSVTFDVSKLKEGEQYMFFCTFPGHSALMKGTLTLK
- denaturant m value (Dextran 20 50 mg/ml): 4.99 kcal/mol/M
- denaturant m value (Dextran 20 100 mg/ml): 4.99 kcal/mol/M and 4.87 kcal/mol/M
- unfolding free energy (Dextran 20 100 mg/ml): 8.71 kcal/mol
- denaturant m value (Dextran 20 150 mg/ml): 4.68 kcal/mol/M
- denaturant m value (Dextran 20 200 mg/ml): 4.66 kcal/mol/M
- denaturant m value (Dextran20 200 mg/ml): 4.66 kcal/mol/M
- denaturant m value (Dextran 20 250 mg/ml): 4.49 kcal/mol/M
- unfolding free energy (Dextran 20 250 mg/ml): 9.29 kcal/mol
- denaturant m value (Dextran 20 300 mg/ml): 4.9 kcal/mol/M
- unfolding free energy (Dextran 20 300 mg/ml): 9.65 kcal/mol
- denaturant m value (Dextran 40 200 mg/ml): 5.11 kcal/mol/M
- unfolding free energy (Dextran 40 200 mg/ml): 8.95 kcal/mol
- denaturant m value (Dextran 40 250 mg/ml): 4.08 kcal/mol/M
- unfolding free energy (Dextran 40 250 mg/ml): 9.5 kcal/mol
- denaturant m value (Dextran 40 300 mg/ml): 4.68 kcal/mol/M
- unfolding free energy (Dextran 40 300 mg/ml): 9.65 kcal/mol
- denaturant m value (Dextran 70 100 mg/ml): 4.9 kcal/mol/M
- unfolding free energy (Dextran 70 100 mg/ml): 8.59 kcal/mol
- denaturant m value (Dextran 70 200 mg/ml): 4.73 kcal/mol/M
- unfolding free energy (Dextran 70 200 mg/ml): 8.86 kcal/mol
- denaturant m value (Dextran 70 300 mg/ml): 4.68 kcal/mol/M
- unfolding free energy (Dextran 70 300 mg/ml): 9.65 kcal/mol
- denaturant m value (Ficoll 70 50 mg/ml): 5.09 kcal/mol/M
- denaturant m value (Ficoll 70 100 mg/ml): 4.97 kcal/mol/M
- denaturant m value (Ficoll 70 150 mg/ml): 4.46 kcal/mol/M
- denaturant m value (Ficoll 70 200 mg/ml): 4.92 kcal/mol/M
- denaturant m value (Ficoll 70 250 mg/ml): 4.94 kcal/mol/M
- denaturant m value (Ficoll 70 300 mg/ml): 5.16 kcal/mol/M
- denaturant m value: 4.92 kcal/mol/M
- Tm (Dextran 20 50 mg/ml): 64 °C
- unfolding enthalpy (calorimetric) (Dextran 20 50 mg/ml): 112 kcal/mol
- Tm (Dextran 20 100 mg/ml): 65 °C
- unfolding enthalpy (calorimetric) (Dextran 20 100 mg/ml): 114 kcal/mol
- Tm (Dextran 20 150 mg/ml): 65 °C
- unfolding enthalpy (calorimetric) (Dextran 20 150 mg/ml): 115 kcal/mol
- Tm (Dextran 20 200 mg/ml): 66 °C
- unfolding enthalpy (calorimetric) (Dextran 20 200 mg/ml): 120 kcal/mol
- Tm (Dextran20 200 mg/ml): 66 °C
- Tm (Dextran 20 250 mg/ml): 67 °C
- unfolding enthalpy (calorimetric) (Dextran 20 250 mg/ml): 107 kcal/mol
- Tm (Dextran 40 200 mg/ml): 66 °C
- Tm (Dextran 70 100 mg/ml): 65 °C
- Tm (Dextran 70 200 mg/ml): 68 °C
- Tm (Ficoll 70 50 mg/ml): 64 °C
- unfolding enthalpy (calorimetric) (Ficoll 70 50 mg/ml): 117 kcal/mol
- Tm (Ficoll 70 100 mg/ml): 64 °C
- unfolding enthalpy (calorimetric) (Ficoll 70 100 mg/ml): 117 kcal/mol
- Tm (Ficoll 70 150 mg/ml): 65 °C
- unfolding enthalpy (calorimetric) (Ficoll 70 150 mg/ml): 118 kcal/mol
- Tm (Ficoll 70 200 mg/ml): 65 °C
- unfolding enthalpy (calorimetric) (Ficoll 70 200 mg/ml): 117 kcal/mol
- Tm (Ficoll 70 250 mg/ml): 65 °C
- unfolding enthalpy (calorimetric) (Ficoll 70 250 mg/ml): 113 kcal/mol
